Results on 16 molecules are retold here after US20210347913A1 (CRISPR THERAPEUTICS, published 2021).

In one assay the target is T1, anti-PTK7 antibody Ab181.
T1 construct: Unmasked parent IgG1kappa; also called Ab181 IgG1kappa
As to the kind of experiment: phage display selection of peptide binders of Ab181 (Screen 2, XnCXnCXn library).

Assay [1] addresses T2, recombinant human PTK7.Fc (R and D Systems, catalog #9799-TK) (human, UniProt Q13308 31-704, limits assumed).
T2 construct: Bought reagent; also called soluble recombinant human PTK7.Fc; soluble antigen PTK7; not shown: Fc part of the bought fusion (detected with anti-human Fc)
T2 sequence (looked up): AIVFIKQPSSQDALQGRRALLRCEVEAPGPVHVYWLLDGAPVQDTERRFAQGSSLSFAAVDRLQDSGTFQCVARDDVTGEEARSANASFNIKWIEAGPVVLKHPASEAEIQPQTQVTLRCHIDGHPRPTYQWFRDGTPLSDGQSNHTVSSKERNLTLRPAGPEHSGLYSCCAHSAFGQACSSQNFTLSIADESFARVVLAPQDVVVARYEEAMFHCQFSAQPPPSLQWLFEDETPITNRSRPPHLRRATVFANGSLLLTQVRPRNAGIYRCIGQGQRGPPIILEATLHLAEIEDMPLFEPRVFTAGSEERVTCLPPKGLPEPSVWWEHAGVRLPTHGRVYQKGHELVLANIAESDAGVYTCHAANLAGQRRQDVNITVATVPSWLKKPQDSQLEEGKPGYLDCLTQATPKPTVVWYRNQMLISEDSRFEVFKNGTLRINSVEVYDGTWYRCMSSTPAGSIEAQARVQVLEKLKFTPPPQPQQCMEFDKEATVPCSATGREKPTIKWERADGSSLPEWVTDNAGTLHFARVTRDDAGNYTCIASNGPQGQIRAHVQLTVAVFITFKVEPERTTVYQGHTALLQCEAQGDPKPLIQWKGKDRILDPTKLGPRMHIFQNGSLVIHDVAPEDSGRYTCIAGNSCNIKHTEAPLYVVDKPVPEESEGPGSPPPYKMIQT
As to the kind of experiment: flow cytometry, percent of CAR T cells positive for 10 ug/mL PTK7.Fc. The method, then:
In addition to detecting surface CAR expression, the ability of the CAR T cells and masked CAR T cells to detect target antigen was also determined. Live CAR T cells were gated by their forward scatter (FSC) and side scatter (SSC) profiles, and with DAPI dye (Invitrogen, catalog #: D3571). The cells were then stained with 10 μg/mL recombinant human PTK7.Fc (R and D Systems, catalog #9799-TK Lot DHMCO219041) as described above in Example 3, and with mouse anti-human.Fc conjugated to APC (Biolegend cat #409305) as secondary antibody for detection (FIG. 3).
Background: In flow cytometry, cells or beads pass a laser one at a time.

The target in assay [2] is T3, PTK7 on PTK7 positive cell line SaOS-2 (osteosarcoma) (UniProt Q13308 31-1070, limits assumed).
T3 sequence (looked up): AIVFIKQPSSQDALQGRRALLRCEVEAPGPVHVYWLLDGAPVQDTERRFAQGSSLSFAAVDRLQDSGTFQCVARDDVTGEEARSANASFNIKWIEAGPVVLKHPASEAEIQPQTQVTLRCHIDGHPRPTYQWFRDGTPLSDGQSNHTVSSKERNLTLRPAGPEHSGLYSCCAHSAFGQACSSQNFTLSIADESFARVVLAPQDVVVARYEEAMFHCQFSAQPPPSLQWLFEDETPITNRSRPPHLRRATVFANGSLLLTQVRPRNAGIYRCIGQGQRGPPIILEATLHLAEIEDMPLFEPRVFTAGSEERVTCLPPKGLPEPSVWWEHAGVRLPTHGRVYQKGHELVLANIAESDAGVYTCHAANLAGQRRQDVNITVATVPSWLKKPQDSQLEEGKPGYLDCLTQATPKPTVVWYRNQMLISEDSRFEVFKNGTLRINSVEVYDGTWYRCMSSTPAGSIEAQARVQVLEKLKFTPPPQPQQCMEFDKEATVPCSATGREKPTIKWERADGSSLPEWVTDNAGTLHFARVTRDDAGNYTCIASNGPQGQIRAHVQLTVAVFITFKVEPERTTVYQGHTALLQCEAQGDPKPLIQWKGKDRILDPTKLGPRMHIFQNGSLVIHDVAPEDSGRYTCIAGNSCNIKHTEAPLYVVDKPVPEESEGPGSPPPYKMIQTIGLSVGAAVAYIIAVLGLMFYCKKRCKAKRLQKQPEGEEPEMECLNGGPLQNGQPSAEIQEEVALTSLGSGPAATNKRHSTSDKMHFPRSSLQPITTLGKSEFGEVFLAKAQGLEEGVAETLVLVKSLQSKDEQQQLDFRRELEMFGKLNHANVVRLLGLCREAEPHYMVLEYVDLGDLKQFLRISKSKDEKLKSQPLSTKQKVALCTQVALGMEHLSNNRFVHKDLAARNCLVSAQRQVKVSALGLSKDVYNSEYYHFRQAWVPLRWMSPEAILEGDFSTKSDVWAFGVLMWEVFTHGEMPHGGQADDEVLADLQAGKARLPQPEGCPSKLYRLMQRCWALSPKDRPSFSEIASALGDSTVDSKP
As to the kind of experiment: cell-based or functional assay.

The target in assay [3] is T3, PTK7 on PTK7 positive cell line SaOS-2 …. As to the kind of experiment: cell-based or functional assay. This is another data set of the same source.

B1: mask peptide M9 (peptide)
peptide: CHIGKRPVPCLWI
notes: Found by phage display (Screen 2); in the masked constructs preceded by QG and fused through a cleavable linker
Regarding B1, the binding result in the assay with anti-PTK7 antibody Ab181 is recorded as “binds”.

B2: mask peptide M4 (peptide)
peptide: CTFPNTTMQRTFC
notes: as for B1
On to B2, for which, in the assay with anti-PTK7 antibody Ab181, the binding result was “binds”.

B3: mask peptide M7 (peptide)
peptide: CTMPYHIHSIGLC
notes: as for B1
With B3, the binding result with anti-PTK7 antibody Ab181 was “binds”.

B4: CTX181.M9 (other)
chain: QGCHIGKRPVPCLWIGSSGGSGGSGGSGGGPLGLAGGSSGQVQLVESGGGVVQPGRSLRLSCAASGFTFSSYGMHWVRQAPGKGLEWVAVIWDDGSNKYYVDSVKGRFTISRDNSKNTLYLQMNSLRAEDTAVYYCARDDYYGSGSFNSYYGTDVWGQGTTVTVSSGGGGSGGGGSGGGGSEIVLTQSPATLSLSPGERATLSCRASQSVSIYLAWYQQKPGQAPRLLIYDASNRATGIPARFSGSGSGTDFTLTISSLEPEDFAVYYCQQRSNWPPFTFGPGTKVDIKSAAAFVPVFLPAKPTTTPAPRPPTPAPTIASQPLSLRPEACRPAAGGAVHTRGLDFACDIYIWAPLAGTCGVLLLSLVITLYCNHRNRSKRSRLLHSDYMNMTPRRPGPTRKHYQPYAPPRDFAAYRSRVKFSRSADAPAYQQGQNQLYNELNLGRREEYDVLDKRRGRDPEMGGKPRRKNPQEGLYNELQKDKMAEAYSEIGMKGERRRGKGHDGLYQGLSTATKDTYDALHMQALPPR
notes: Masked chimeric antigen receptor on the surface of TRAC-/B2M- human T cells; entry without signal peptide
Turning to B4, in assay [1], the “% Antigen detection” value was 35.1%.

B5: mask peptide M13 (peptide)
peptide: CTYPPRFHMHWLC
notes: as for B1
On to B5, for which the binding result with anti-PTK7 antibody Ab181 is “binds”.

B6: mask peptide M8 (peptide)
peptide: WCTIPSSMSIRLC
notes: as for B1
B6: the binding result in the assay with anti-PTK7 antibody Ab181 was “binds”.

B7: mask peptide M10 (peptide)
peptide: CYIGLRMVPCFHM
notes: as for B1
With B7, the binding result in the assay with anti-PTK7 antibody Ab181 is given as “binds”.

B8: mask peptide M5 (peptide)
peptide: CTYPSWVAYIRFC
notes: as for B1
As for B8, in the assay with anti-PTK7 antibody Ab181, the binding result is reported as “binds”.

B9: CTX181 (unmasked CAR) (other)
chain: QVQLVESGGGVVQPGRSLRLSCAASGFTFSSYGMHWVRQAPGKGLEWVAVIWDDGSNKYYVDSVKGRFTISRDNSKNTLYLQMNSLRAEDTAVYYCARDDYYGSGSFNSYYGTDVWGQGTTVTVSSGGGGSGGGGSGGGGSEIVLTQSPATLSLSPGERATLSCRASQSVSIYLAWYQQKPGQAPRLLIYDASNRATGIPARFSGSGSGTDFTLTISSLEPEDFAVYYCQQRSNWPPFTFGPGTKVDIKSAAAFVPVFLPAKPTTTPAPRPPTPAPTIASQPLSLRPEACRPAAGGAVHTRGLDFACDIYIWAPLAGTCGVLLLSLVITLYCNHRNRKRGRKKLLYIFKQPFMRPVQTTQEEDGCSCRFPEEEEGGCELRVKFSRSADAPAYQQGQNQLYNELNLGRREEYDVLDKRRGRDPEMGGKPRRKNPQEGLYNELQKDKMAEAYSEIGMKGERRRGKGHDGLYQGLSTATKDTYDALHMQALPPR
notes: Chimeric antigen receptor (Ab181 scFv) on the surface of TRAC-/B2M- human T cells; entry without signal peptide; also called anti-PTK7 CAR; unmasked CAR CTX181
Consider B9, for which, in assay [2], the “IFNγ (pg/mL) at E:T = 1:0.5” value was determined as 22300 pg/mL and the “IFNγ (pg/mL) at E:T = 1:1” value was determined as 34900 pg/mL. In addition, in assay [1], the “% Antigen detection” value was found to be 61.9%. Moreover, in assay [3], the “% Cell killing at E:T = 1:0.5” value came to 97.1% and the “% Cell killing at E:T = 1:1” value was found to be 96.6%.

B10: CTX181.M3 (other)
chain: QGCTMPPSPRSKVICGSSGGSGGSGGSGGGPLGLAGGSSGQVQLVESGGGVVQPGRSLRLSCAASGFTFSSYGMHWVRQAPGKGLEWVAVIWDDGSNKYYVDSVKGRFTISRDNSKNTLYLQMNSLRAEDTAVYYCARDDYYGSGSFNSYYGTDVWGQGTTVTVSSGGGGSGGGGSGGGGSEIVLTQSPATLSLSPGERATLSCRASQSVSIYLAWYQQKPGQAPRLLIYDASNRATGIPARFSGSGSGTDFTLTISSLEPEDFAVYYCQQRSNWPPFTFGPGTKVDIKSAAAFVPVFLPAKPTTTPAPRPPTPAPTIASQPLSLRPEACRPAAGGAVHTRGLDFACDIYIWAPLAGTCGVLLLSLVITLYCNHRNRSKRSRLLHSDYMNMTPRRPGPTRKHYQPYAPPRDFAAYRSRVKFSRSADAPAYQQGQNQLYNELNLGRREEYDVLDKRRGRDPEMGGKPRRKNPQEGLYNELQKDKMAEAYSEIGMKGERRRGKGHDGLYQGLSTATKDTYDALHMQALPPR
As for B10, in assay [2], the “IFNγ (pg/mL) at E:T = 1:0.5” value turned out to be 833 pg/mL and the “IFNγ (pg/mL) at E:T = 1:1” value turned out to be 799 pg/mL. In addition, in assay [3], the “% Cell killing at E:T = 1:0.5” value was determined as 39% and the “% Cell killing at E:T = 1:1” value was determined as 17.8%.

B11: CTX181.M12 (other)
chain: QGCTMPVHTYSQWLCGSSGGSGGSGGSGGGPLGLAGGSSGQVQLVESGGGVVQPGRSLRLSCAASGFTFSSYGMHWVRQAPGKGLEWVAVIWDDGSNKYYVDSVKGRFTISRDNSKNTLYLQMNSLRAEDTAVYYCARDDYYGSGSFNSYYGTDVWGQGTTVTVSSGGGGSGGGGSGGGGSEIVLTQSPATLSLSPGERATLSCRASQSVSIYLAWYQQKPGQAPRLLIYDASNRATGIPARFSGSGSGTDFTLTISSLEPEDFAVYYCQQRSNWPPFTFGPGTKVDIKSAAAFVPVFLPAKPTTTPAPRPPTPAPTIASQPLSLRPEACRPAAGGAVHTRGLDFACDIYIWAPLAGTCGVLLLSLVITLYCNHRNRSKRSRLLHSDYMNMTPRRPGPTRKHYQPYAPPRDFAAYRSRVKFSRSADAPAYQQGQNQLYNELNLGRREEYDVLDKRRGRDPEMGGKPRRKNPQEGLYNELQKDKMAEAYSEIGMKGERRRGKGHDGLYQGLSTATKDTYDALHMQALPPR
With B11, in assay [2], the “IFNγ (pg/mL) at E:T = 1:0.5” value stood at 2420 pg/mL and the “IFNγ (pg/mL) at E:T = 1:1” value turned out to be 1770 pg/mL. For the same molecule, in assay [3], the “% Cell killing at E:T = 1:0.5” value stood at 29.5% and the “% Cell killing at E:T = 1:1” value came out at 18.5%.

B12: mask peptide M6 (peptide)
peptide: VCTYPPAHRTRFC
notes: as for B1
On to B12, for which the binding result with anti-PTK7 antibody Ab181 is listed as “binds”.

B13: mask peptide M14 (peptide)
peptide: CTHVAQWAIKAFC
notes: as for B1
As for B13, the binding result in the assay with anti-PTK7 antibody Ab181 is recorded as “binds”.

B14: mask peptide M11 (peptide)
peptide: CTMPSHAVASFLC
notes: as for B1
Regarding B14, the binding result in the assay with anti-PTK7 antibody Ab181 is given as “binds”.

B15: mask peptide M3 (peptide)
peptide: CTMPPSPRSKVIC
notes: as for B1
For B15, the binding result with anti-PTK7 antibody Ab181 was “binds”.

B16: mask peptide M12 (peptide)
peptide: CTMPVHTYSQWLC
notes: as for B1
B16: the binding result with anti-PTK7 antibody Ab181 is “binds”.
